Measurements: the Immune Epitope Database (IEDB)

Columns and labels:
[1] = molecular target: HLA-A*01:01; test: IEDB peptide-MHC binding, purified MHC/direct/fluorescence; filed as Kd, often an IC50 or EC50 that approximates it; ≥ and ≤ were set here for values at or beyond the usual limits of such assays
[2] = molecular target: HLA-B*44:02; test: IEDB peptide-MHC binding, purified MHC/competitive/radioactivity; filed as Kd, often an IC50 or EC50 that approximates it; ≥ and ≤ were set here for values at or beyond the usual limits of such assays
[3] = molecular target: HLA-B*40:01; test: as above
[4] = molecular target: HLA-B*44:03; test: as above
[5] = molecular target: HLA-A*32:01; test: as above
[6] = molecular target: HLA-A*30:01; test: as above
[7] = molecular target: HLA-A*03:01; test: as above; conditions: source organism: Dengue virus 4 Philippines/H241/1956
[8] = molecular target: HLA-A*24:02; test: IEDB peptide-MHC binding, purified MHC/competitive/fluorescence; ≥ and ≤ were set here for values at or beyond the usual limits of such assays
[9] = molecular target: HLA-B*53:01; test: IEDB peptide-MHC binding, purified MHC/competitive/radioactivity; filed as Kd, often an IC50 or EC50 that approximates it; ≥ and ≤ were set here for values at or beyond the usual limits of such assays
[10] = molecular target: HLA-A*26:01; test: as above
[11] = molecular target: HLA-B*15:01; test: IEDB peptide-MHC binding, purified MHC/direct/fluorescence; filed as Kd, often an IC50 or EC50 that approximates it; ≥ and ≤ were set here for values at or beyond the usual limits of such assays; conditions: source organism: Homo sapiens
[12] = molecular target: HLA-A*11:01; test: as above; conditions: source organism: Homo sapiens
[13] = molecular target: HLA-A*69:01; test: as above
[14] = molecular target: HLA-A*02:01; test: as above
[15] = molecular target: HLA-A*02:01; test: IEDB peptide-MHC binding, purified MHC/competitive/fluorescence; ≥ and ≤ were set here for values at or beyond the usual limits of such assays
[16] = molecular target: HLA-A*02:01; test: IEDB peptide-MHC binding, purified MHC/competitive/fluorescence; filed as Kd, often an IC50 or EC50 that approximates it; ≥ and ≤ were set here for values at or beyond the usual limits of such assays
[17] = molecular target: HLA-A*29:02; test: IEDB peptide-MHC binding, purified MHC/competitive/radioactivity; filed as Kd, often an IC50 or EC50 that approximates it; ≥ and ≤ were set here for values at or beyond the usual limits of such assays
[18] = molecular target: HLA-A*30:02; test: as above
[19] = molecular target: HLA-A*01:01; test: as above
[20] = molecular target: HLA-B*58:01; test: IEDB peptide-MHC binding, purified MHC/direct/fluorescence; filed as Kd, often an IC50 or EC50 that approximates it; ≥ and ≤ were set here for values at or beyond the usual limits of such assays; conditions: source organism: Homo sapiens
[21] = molecular target: HLA-B*07:02; test: as above; conditions: source organism: Homo sapiens
[22] = molecular target: HLA-A*02:06; test: IEDB peptide-MHC binding, purified MHC/competitive/radioactivity; filed as Kd, often an IC50 or EC50 that approximates it; ≥ and ≤ were set here for values at or beyond the usual limits of such assays; conditions: source organism: Dengue virus 1 Brazil/97-11/1997
[23] = source organism: Dengue virus 2 Jamaica/1409/1983
[24] = source organism: Vaccinia virus WR
[25] = source organism: Dengue virus 3 Martinique/1243/1999
[26] = source organism: Dengue virus 4 Philippines/H241/1956
[27] = source organism: Clostridium botulinum
[28] = source organism: Mammarenavirus brazilense
[29] = source organism: Mammarenavirus tacaribeense
[30] = source organism: Entamoeba histolytica HM-1:IMSS
[31] = source organism: Dengue virus 1 Brazil/97-11/1997

## AARISSCLK
[1]; source organism: Yersinia pestis
  Kd: ≥ 20000 nM

## AEPPFGDSYI
[2]; [23]
  Kd: 432 nM
[3]; [23]
  Kd: 1990 nM
[4]; [23]
  Kd: 79.3 nM

## ALATFTVNI
[5]; [24]
  Kd: 6.07 nM

## ASKTINALV
[6]; [24]
  Kd: 0.175 nM

## AVSRGSAKLQ
[6]; [25]
  Kd: 1290 nM

## AWRTATLIL
[6]; [25]
  Kd: 592 nM

## CLRRRVTRK
[6]; [26]
  Kd: 3140 nM
[7]
  Kd: 2.7 nM

## DFQESADSF
[8]; source organism: Zaire ebolavirus
  IC50: 55000 nM

## EPDYEVDEDI
[9]; [26]
  Kd: 1170 nM

## ETRAETWMSS
[5]; [26]
  Kd: ≥ 47200 nM
[10]; [26]
  Kd: 504 nM

## EVDPIGHLY
[11]
  Kd: 3710 nM
[12]
  Kd: 3360 nM
[13]; source organism: Homo sapiens
  Kd: 4390 nM

## FEEYKRSGIL
[3]; [26]
  Kd: 18.7 nM

## FEKQLGQVML
[3]; [23]
  Kd: 130 nM

## FLWSSIIFK
[14]; [27]
  Kd: 4430 nM
[13]; [27]
  Kd: 7000 nM

## FLWWNAAPA
[13]; source organism: Mycobacterium tuberculosis
  Kd: ≤ 1 nM

## FPQSNAPIQ
[9]; [25]
  Kd: 69.8 nM

## GEIGAIALD
[4]; [25]
  Kd: 907 nM

## GILPWTKIS
[15]; [24]
  IC50: 17200 nM
[8]; [24]
  IC50: ≥ 133000 nM

## GVSGGAWVDL
[5]; [26]
  Kd: ≥ 69900 nM

## HIKNDFMIK
[6]; [24]
  Kd: 1.6 nM

## HIYFVSLLL
[5]; [24]
  Kd: 15.3 nM

## HLGNVKYLV
[16]; source organism: Plasmodium falciparum
  Kd: 6.5 nM

## HTASGEHSL
[6]; [28]
  Kd: 8480 nM
[17]; [28]
  Kd: ≥ 78900 nM
[5]; [28]
  Kd: 11900 nM
[10]; [28]
  Kd: 16500 nM
[18]; [28]
  Kd: 5640 nM
[19]; [28]
  Kd: ≥ 25100 nM

## HYAYMVPGW
[8]; source organism: West Nile virus
  IC50: 220 nM

## HYDQKLGSY
[6]; [29]
  Kd: 5540 nM
[17]; [29]
  Kd: ≥ 20300 nM
[5]; [29]
  Kd: 19400 nM
[10]; [29]
  Kd: ≥ 36000 nM
[18]; [29]
  Kd: 89.8 nM
[19]; [29]
  Kd: 11000 nM

## IGEWAFWEN
[8]; source organism: Sudan ebolavirus
  IC50: 58800 nM

## IGFLVLWIGT
[5]; [26]
  Kd: ≥ 69900 nM

## IHAKHEWMTT
[5]; [23]
  Kd: 5230 nM

## ILLFVIVIY
[5]; [24]
  Kd: 952 nM

## ISLICGHSY
[11]
  Kd: 108 nM
[20]
  Kd: 22 nM
[12]
  Kd: 8980 nM
[13]; source organism: Homo sapiens
  Kd: 5280 nM
[21]
  Kd: 17400 nM
[1]; source organism: Homo sapiens
  Kd: 11000 nM

## ISQHQHLAI
[5]; [24]
  Kd: 107 nM

## ITDVIVQSI
[5]; [24]
  Kd: 256 nM

## ITFLRVLSI
[5]; [26]
  Kd: 100 nM

## ITTDSRCPTQ
[6]; [25]
  Kd: 866 nM

## KAKEMNALS
[6]; [24]
  Kd: 50.5 nM

## KAMWKYPFS
[6]; [24]
  Kd: 250 nM

## KAQREIFSA
[15]; source organism: Variola virus
  IC50: 2010 nM
[8]; source organism: Variola virus
  IC50: 165 nM

## KEENLVNSL
[3]; [23]
  Kd: 2.17 nM

## KEIGRMLNIL
[3]; [23]
  Kd: 4.83 nM

## KFRDMITFR
[1]; source organism: Vibrio cholerae
  Kd: ≥ 20000 nM

## KLRGVAPL
[16]; source organism: Influenza A virus (A/Swine/Indiana/1726/1988(H1N1))
  Kd: 2250 nM

## KLYDSVYLT
[14]; [30]
  Kd: 7.6 nM
[13]; [30]
  Kd: ≥ 20000 nM

## KMFSNNVLI
[5]; [24]
  Kd: 1.1 nM

## KQWFLDLPL
[22]
  Kd: 7.51 nM
[5]; [31]
  Kd: 13.3 nM

## KSKFPRSML
[6]; [24]
  Kd: 31.2 nM

## KTMAPVHTY
[5]; [24]
  Kd: 4.55 nM

## KTTWLPVLL
[5]; [31]
  Kd: 148 nM

## KVHADDIPV
[16]; source organism: Escherichia coli
  Kd: 15.3 nM

## KVRTNAAMG
[6]; [25]
  Kd: 11.3 nM

## LEIDFGECPG
[3]; [26]
  Kd: 10200 nM

## LENIMWKQI
[2]; [31]
  Kd: 115 nM
[4]; [31]
  Kd: 204 nM
